Test results taken from patent publication CN116789813A.

Tests used:
[1] = biological target: 野生型金黄色葡萄球菌α-溶血素(wtHla) (Staphylococcus aureus (strain MRSA 252)); assay: cell-based or functional assay
[2] = biological target: 野生型金黄色葡萄球菌α-溶血素(wtHla) (Staphylococcus aureus (strain MRSA 252)); assay: ELISA, wtHla coated at 2μg/mL, anti-human IgG Fab-HRP detection

B1: 全人源Hla单克隆抗体Hla-38 (antibody, V domains shown)
VH: QVQLLESGGGVVQPGRSLRLSCIVSGFDLNSFAMHWVRQPPGKGLEWVAVIWHDGSERFYAASVKGRFTISRDTSRNTLFLQMNSLRVEDTAVYYCAKSGDYYENSGYFGSWGQGALVTVSS
VL: ELVLTQSPATLSVSPGERATLSCRASQSVGNDLAWYQQKPGQAPRLLIYGASTRATGIPARFSGSGFGTEFTLTISSLQSEDFAVYYCQQYNNWWTFGQGTKVDIK
保护率 (mice injected i.p. with 15μg wtHla pre-incubated with 2.5μg antibody) [1]: < 30%
保护率 (mice injected i.p. with 15μg wtHla pre-incubated with 5μg antibody) [1]: < 30%
保护率 (mice injected i.p. with 15μg wtHla pre-incubated with 10μg antibody) [1]: 50%
小鼠生存率 (mice injected i.p. with 15μg wtHla pre-incubated with 20μg antibody) [1]: > 80%
EC50 [2]: 0.33 µg/mL
